Assay: [3H]gabapentin binding of C-terminally truncated porcine α2δ-1 subunit mutants expressed in COS-7 cells
Settings: C-terminal deletions of the δ component, residues of SEQ ID NO:5
Protocol: All media contained 50 units/ml penicillin and 50 microgramm per ml streptomycin. COS-7 cells were maintained in Dulbecco's modified Eagle's medium+glutamax, 10% fetal bovine serum (gamma irradiated) in a 37° C./5% CO2 incubator and passaged by trypsinization. For transient expression experiments, 150-mm culture dishes were seeded with […] and incubated for 16 h. Cells were then washed twice with 30 ml of optiMEM-1 and transfected (t=0 h) with 30 microgramm of plasmid DNA by lipofectamine-mediated transfection in 21 ml of optiMEM-1. At t=6 h, a further 21 ml of optiMEM-1 was added. At t=24 h, the medium was replaced with 42 ml of optiMEM-1. At t=48 h, the cells were washed twice with 30 ml of phosphate-buffered saline and then harvested in 3 ml of buffer A ([…], 1 mM EGTA, 20% glycerol, 10 mm HEPES, pH 7.4, at 4° C.) plus 0.1 mM phenymethylsulfonyl fluoride using a cell scraper.
All subsequent operations were performed at 4° C. The cells were rotated on a Spiramix (Denley Instruments) for 30 min, centrifuged at 20,000×g for 5 min, resuspended in 1 ml of buffer A, recentrifuged at 20,000×g for 5 min, and finally resuspended in 400 microliter of buffer A. Membrane preparations were stored at −70° C. until required.
Protein concentrations were determined by the method of Bradford using bovine serum albumin as a standard. [^3H]Gabapentin binding assays were performed as described previously. For saturation analysis, incubations were performed in duplicate. All other incubations were performed in triplicate. SDS-polyacrylamide gel electrophoresis and Western blotting were performed using the Novex gel and buffer system (Novex Europe, Frankfurt, Germany). Molecular weights were determined by reference to Kaleidoscope markers (Bio-Rad). Detection was performed using the ECL system (Amersham).

Row | Molecule | [^3H]gabapentin binding
1 | mutant extending to residue 1018: C-terminally truncated porcine α2δ-1 subunit, residues 1019 to 1091 deleted (protein, listed as Sus scrofa) MAAGCLLALTLTLFQSLLIGPSSQEPFPSAVTIKSWVDKMQEDLVTLAKTASGVNQLVDIYEKYQDLYTVEPNNARQLVEIAARDIEKLLSNRSKALVRLALEAEKVQAAHQWREDFASNEVVYYNAKDDLDPEKNDSEPGSQRIKPVFIDDANFGRQISYQHAAVHIPTDIYEGSTIVLNELNWTSALDEVFKKNREEDPSLLWQVFGSATGLARYYPASPWVDNSRTPNKIDLYDVRRRPWYIQGAASPKDMLILVDVSGSVSGLTLKLIRTSVSEMLETLSDDDFVNVASFNSNAQDVSCFQHLVQANVRNKKVLKDAVNNITAKGITDYKKGFSFAFEQLLNYNVSRANCNKIIMLFTDGGEERAQEIFAKYNKDKKVRVFTFSVGQHNYDRGPIQWMACENKGYYYEIPSIGAIRINTQEYLDVLGRPMVLAGDKAKQVQWTNVYLDALELGLVITGTLPVFNITGQNENKTNLKNQLILGVMGVDVSLEDIKRLTPRFTLCPNGYYFAIDPNGYVLLHPNLQPKNPKSQEPVTLDFLDAELENDIKVEIRNKMIDGESGEKTFRTLVKSQDERYIDKGNRTYTWTPVNGTDYSLALVLPTYSFYYIKAKIEETITQARSKKGKMKDSETLKPDNFEESGYTFIAPRDYCNDLKISDNNTEFLLNFNEFIDRKTPNNPSCNTDLINRVLLDAGFTNELVQNYWSKQKNIKGVKARFVVTDGGITRVYPKEAGENWQENPETYEDSFYKRSLDNDNYVFTAPYFNKSGPGAYESGIMVSKAVEIYIQGKLLKPAVVGIKIDVNSWIENFTKTSIRDPCAGPVCDCKRNSDVMDCVILDDGGFLLMANHDDYTNQIGRFFGEIDPSLMRHLVNISVYAFNKSYDYQSVCEPGAAPKQGAGHRSAYVPSIADILHIGWWATAAAWSILQQFLLSLTFPRLLEAVEMEDDDFTASLSKQSCITEQTQYFFDNDSKSFSGVLDCGNCSRIFHVEKLMNTNLIFIMVESKGTCPCDTRL | exhibit gabapentin binding activity
2 | mutant extending to residue 1036: C-terminally truncated porcine α2δ-1 subunit, residues 1037 to 1091 deleted (protein, listed as Sus scrofa) MAAGCLLALTLTLFQSLLIGPSSQEPFPSAVTIKSWVDKMQEDLVTLAKTASGVNQLVDIYEKYQDLYTVEPNNARQLVEIAARDIEKLLSNRSKALVRLALEAEKVQAAHQWREDFASNEVVYYNAKDDLDPEKNDSEPGSQRIKPVFIDDANFGRQISYQHAAVHIPTDIYEGSTIVLNELNWTSALDEVFKKNREEDPSLLWQVFGSATGLARYYPASPWVDNSRTPNKIDLYDVRRRPWYIQGAASPKDMLILVDVSGSVSGLTLKLIRTSVSEMLETLSDDDFVNVASFNSNAQDVSCFQHLVQANVRNKKVLKDAVNNITAKGITDYKKGFSFAFEQLLNYNVSRANCNKIIMLFTDGGEERAQEIFAKYNKDKKVRVFTFSVGQHNYDRGPIQWMACENKGYYYEIPSIGAIRINTQEYLDVLGRPMVLAGDKAKQVQWTNVYLDALELGLVITGTLPVFNITGQNENKTNLKNQLILGVMGVDVSLEDIKRLTPRFTLCPNGYYFAIDPNGYVLLHPNLQPKNPKSQEPVTLDFLDAELENDIKVEIRNKMIDGESGEKTFRTLVKSQDERYIDKGNRTYTWTPVNGTDYSLALVLPTYSFYYIKAKIEETITQARSKKGKMKDSETLKPDNFEESGYTFIAPRDYCNDLKISDNNTEFLLNFNEFIDRKTPNNPSCNTDLINRVLLDAGFTNELVQNYWSKQKNIKGVKARFVVTDGGITRVYPKEAGENWQENPETYEDSFYKRSLDNDNYVFTAPYFNKSGPGAYESGIMVSKAVEIYIQGKLLKPAVVGIKIDVNSWIENFTKTSIRDPCAGPVCDCKRNSDVMDCVILDDGGFLLMANHDDYTNQIGRFFGEIDPSLMRHLVNISVYAFNKSYDYQSVCEPGAAPKQGAGHRSAYVPSIADILHIGWWATAAAWSILQQFLLSLTFPRLLEAVEMEDDDFTASLSKQSCITEQTQYFFDNDSKSFSGVLDCGNCSRIFHVEKLMNTNLIFIMVESKGTCPCDTRLLIQAEQTSDGPDPCDMVK | exhibit gabapentin binding activity
3 | mutant extending to residue 1063: C-terminally truncated porcine α2δ-1 subunit, residues 1064 to 1091 deleted (protein, listed as Sus scrofa) MAAGCLLALTLTLFQSLLIGPSSQEPFPSAVTIKSWVDKMQEDLVTLAKTASGVNQLVDIYEKYQDLYTVEPNNARQLVEIAARDIEKLLSNRSKALVRLALEAEKVQAAHQWREDFASNEVVYYNAKDDLDPEKNDSEPGSQRIKPVFIDDANFGRQISYQHAAVHIPTDIYEGSTIVLNELNWTSALDEVFKKNREEDPSLLWQVFGSATGLARYYPASPWVDNSRTPNKIDLYDVRRRPWYIQGAASPKDMLILVDVSGSVSGLTLKLIRTSVSEMLETLSDDDFVNVASFNSNAQDVSCFQHLVQANVRNKKVLKDAVNNITAKGITDYKKGFSFAFEQLLNYNVSRANCNKIIMLFTDGGEERAQEIFAKYNKDKKVRVFTFSVGQHNYDRGPIQWMACENKGYYYEIPSIGAIRINTQEYLDVLGRPMVLAGDKAKQVQWTNVYLDALELGLVITGTLPVFNITGQNENKTNLKNQLILGVMGVDVSLEDIKRLTPRFTLCPNGYYFAIDPNGYVLLHPNLQPKNPKSQEPVTLDFLDAELENDIKVEIRNKMIDGESGEKTFRTLVKSQDERYIDKGNRTYTWTPVNGTDYSLALVLPTYSFYYIKAKIEETITQARSKKGKMKDSETLKPDNFEESGYTFIAPRDYCNDLKISDNNTEFLLNFNEFIDRKTPNNPSCNTDLINRVLLDAGFTNELVQNYWSKQKNIKGVKARFVVTDGGITRVYPKEAGENWQENPETYEDSFYKRSLDNDNYVFTAPYFNKSGPGAYESGIMVSKAVEIYIQGKLLKPAVVGIKIDVNSWIENFTKTSIRDPCAGPVCDCKRNSDVMDCVILDDGGFLLMANHDDYTNQIGRFFGEIDPSLMRHLVNISVYAFNKSYDYQSVCEPGAAPKQGAGHRSAYVPSIADILHIGWWATAAAWSILQQFLLSLTFPRLLEAVEMEDDDFTASLSKQSCITEQTQYFFDNDSKSFSGVLDCGNCSRIFHVEKLMNTNLIFIMVESKGTCPCDTRLLIQAEQTSDGPDPCDMVKQPRYRKGPDVCFDNNALEDYTDCGGVS | exhibit gabapentin binding activity

From patent US6962973B1, “Porcine α2δ-1 calcium channel subunit cDNA and soluble secreted α2δ-1 subunit polypeptides” (Warner-Lambert Company, priority 1999, dated 2005)
